First the molecules themselves.
T1: TIM-3 ECD (extracellular domain of T cell immunoglobulin and mucin domain 3 protein) (UniProt Q8TDQ0 22-202, limits assumed)
T1 construct: extracellular domain; also called CD366
T1 sequence (looked up): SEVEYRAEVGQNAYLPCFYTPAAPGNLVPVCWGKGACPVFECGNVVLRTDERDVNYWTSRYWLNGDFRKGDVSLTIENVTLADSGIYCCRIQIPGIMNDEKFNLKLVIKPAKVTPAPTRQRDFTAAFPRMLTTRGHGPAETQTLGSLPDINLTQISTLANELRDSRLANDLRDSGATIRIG

B1: TRL6099 (antibody, V domains shown)
VH: QVQLVESGAEVKKPGASVKVSCKAFNYTFTSYGISWVRQTPEHGLEWMGWITNSNSNSAQKFQGRVSMTTDTSTSTAYMQLRSLSSDDTAVYYCARIYIDYNNYGLDVWGQGTTVTVSS
VL: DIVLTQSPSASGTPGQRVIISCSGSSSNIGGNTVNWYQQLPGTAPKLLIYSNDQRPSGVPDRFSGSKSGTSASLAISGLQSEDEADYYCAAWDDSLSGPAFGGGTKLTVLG
notes: Lambda light chain
B2: TRL6120 (antibody, V domains shown)
VH: QVQLVESGGGVVQPGRSLRLSCVASGFIFRTYAMHWVRQAPGKGLEWVAVIWPDGSERYYSDSTKGRFTVSRDNSKNTLFLQMNSLRVDDTAMYYCFARGYSDSDYADHWGRGTRVTVSS
VL: DIVMTQSPSVSVSPGQTARITCSGDALSTKFAYWYQQKSGQAPVLVIYEDNKRPSGIPERFSGSGSGTMATLSVSEAQVEDEADYYCFSSDSSGNLFMFGGGTKLTVL
notes: Lambda light chain; also called TIM-3 TRLmAb 6120
B3: TRL6061 (antibody, V domains shown)
VH: QVQLVESGGGVVQPGRSLRLSCAASGFMFSTSAMHWVRQTPGKGLEWLAVIWHDGSEKYYADSVKGRFSISRDNYRDTLYLQMNNLRVEDTAIYYCRGGDVYEIWGQGTMVAVSS
VL: DDIMLTQPPSVSVSPGQTARITCSGDAVAKRYVYWYQQKSGQAPVLVMYEDNKRPSGIPERFSGSSSGTKATLTITGALVEDEADYYCYSTDSSGNLGAFGGGSKLTVL
notes: Lambda light chain
B4: TRL6042 (antibody, V domains shown)
VH: QVQLVESGAEVKKPGESLKISCEGSGYKFTSYWIGWVRQMPGRGPEWMGLIYPSDSDTRYSPSFRGQVTISVDKTISTAYLQWSSLKTSDTAIYYCARLLLATECTSDSCFGDAFDIWGQGTMVTVSS
VL: DIVLTQSPTFLSASVGDRVTITCRASQGISSYLAWYQQKPGKAPKLLLYAASTLQSGVPSRFSGSRSGTEFTLTISSLQPEDFASYYCQQFHNYPFTFGGGTKVEIKR
notes: Native human mAb produced recombinantly; Kappa light chain; also called TIM-3 TRLmAb 6042

We go through four molecules from patent publication US20180186880A1 (TRELLIS BIOSCIENCE, published 2018).

The target of this assay is T1, TIM-3 ECD (extracellular domain of T …). Kind of assay: adsorption ELISA on TIM-3 ECD, serial dilutions of purified mAb, estimate of binding affinity. On the procedure:
Purified mAbs were tested in adsorption ELISA using TIM-3 ECD, generated by Trellis in mammalian cells.
With B1, the Affinity is 0.011 nM.
With B2, the Affinity is 28 nM.
Take B3: the Affinity was 0.005 nM.
Then B4, with 5 nM.
